{"source": "the supplement of paper PMC9112550", "about": "“Optimization of the antimicrobial peptide Bac7 by deep mutational scanning” (BMC Biology, 2022);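 also: peptides expressed intracellularly from a pBAD plasmid library in pooled LB shake-flask culture, induced with 0.3% L-arabinose, DNA abundance read by NGS, three biological replicates, DESeq2 with apeglm shrinkage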", "data": [{"tested_on": "Escherichia coli TOP10", "test": "shrunken log2 fold change of peptide-encoding DNA abundance (4.5 h post-induction vs induction); higher = less antimicrobial activity (less host growth inhibition)", "details": "time post-induction: 4.5 h; library: site-saturation at positions 5, 18, 19, 20", "values": [{"sequence": "RRIRTRPPRLPRPRPRPVWKPRP", "shrunken log2 fold change": -0.026}, {"sequence": "RRIRHRPPRLPRPRPRPNTMPRP", "shrunken log2 fold change": -0.905}, {"sequence": "RRIRVRPPRLPRPRPRPWTDPRP", "shrunken log2 fold change": -0.0083}, {"sequence": "RRIRDRPPRLPRPRPRPWDCPRP", "shrunken log2 fold change": -0.103}, {"sequence": "RRIRRRPPRLPRPRPRPVLNPRP", "shrunken log2 fold change": 0.0825}, {"sequence": "RRIRDRPPRLPRPRPRPSCEPRP", "shrunken log2 fold change": 0.042}, {"sequence": "RRIRCRPPRLPRPRPRPWEVPRP", "shrunken log2 fold change": 0.431}, {"sequence": "RRIRNRPPRLPRPRPRPYYWPRP", "shrunken log2 fold change": -0.367}, {"sequence": "RRIRTRPPRLPRPRPRPFMFPRP", "shrunken log2 fold change": -0.586}, {"sequence": "RRIRKRPPRLPRPRPRPHLFPRP", "shrunken log2 fold change": 0.205}, {"sequence": "RRIRNRPPRLPRPRPRPTMHPRP", "shrunken log2 fold change": -0.159}, {"sequence": "RRIRERPPRLPRPRPRPQGVPRP", "shrunken log2 fold change": 0.0697}, {"sequence": "RRIRARPPRLPRPRPRPLEDPRP", "shrunken log2 fold change": 0.241}, {"sequence": "RRIRRRPPRLPRPRPRPFLNPRP", "shrunken log2 fold change": -0.0441}, {"sequence": "RRIRSRPPRLPRPRPRPFFPPRP", "shrunken log2 fold change": -0.196}, {"sequence": "RRIRNRPPRLPRPRPRPRIVPRP", "shrunken log2 fold change": -0.191}, {"sequence": "RRIRERPPRLPRPRPRPTVMPRP", "shrunken log2 fold change": -0.193}, {"sequence": "RRIRKRPPRLPRPRPRPWLSPRP", "shrunken log2 fold change": 0.0773}, {"sequence": "RRIRKRPPRLPRPRPRPFTFPRP", "shrunken log2 fold change": -0.325}, {"sequence": "RRIRARPPRLPRPRPRPVKKPRP", "shrunken log2 fold change": 0.147}, {"sequence": "RRIRWRPPRLPRPRPRPWFYPRP", "shrunken log2 fold change": -0.705}, {"sequence": "RRIRIRPPRLPRPRPRPGLRPRP", "shrunken log2 fold change": -0.0223}, {"sequence": "RRIRQRPPRLPRPRPRPKCHPRP", "shrunken log2 fold change": -0.0268}, {"sequence": "RRIRDRPPRLPRPRPRPGRWPRP", "shrunken log2 fold change": 0.797}, {"sequence": "RRIRSRPPRLPRPRPRPVDGPRP", "shrunken log2 fold change": 0.826}, {"sequence": "RRIRDRPPRLPRPRPRPDWWPRP", "shrunken log2 fold change": 0.0503}, {"sequence": "RRIRIRPPRLPRPRPRPEPLPRP", "shrunken log2 fold change": 0.0641}, {"sequence": "RRIRGRPPRLPRPRPRPNLIPRP", "shrunken log2 fold change": -0.0614}, {"sequence": "RRIRLRPPRLPRPRPRPITYPRP", "shrunken log2 fold change": -0.266}, {"sequence": "RRIRDRPPRLPRPRPRPYHNPRP", "shrunken log2 fold change": -0.461}, {"sequence": "RRIRRRPPRLPRPRPRPAGDPRP", "shrunken log2 fold change": 0.563}, {"sequence": "RRIRERPPRLPRPRPRPSPGPRP", "shrunken log2 fold change": -0.00119}, {"sequence": "RRIRQRPPRLPRPRPRPGHPPRP", "shrunken log2 fold change": 0.0393}, {"sequence": "RRIRYRPPRLPRPRPRPFNIPRP", "shrunken log2 fold change": -0.973}, {"sequence": "RRIRNRPPRLPRPRPRPFHTPRP", "shrunken log2 fold change": -0.232}, {"sequence": "RRIRKRPPRLPRPRPRPRNLPRP", "shrunken log2 fold change": 0.525}, {"sequence": "RRIRPRPPRLPRPRPRPEPKPRP", "shrunken log2 fold change": 2.44}, {"sequence": "RRIRRRPPRLPRPRPRPMATPRP", "shrunken log2 fold change": 0.609}, {"sequence": "RRIRGRPPRLPRPRPRPYDMPRP", "shrunken log2 fold change": -0.0187}, {"sequence": "RRIRNRPPRLPRPRPRPGQLPRP", "shrunken log2 fold change": -0.126}, {"sequence": "RRIRFRPPRLPRPRPRPSVMPRP", "shrunken log2 fold change": -0.537}, {"sequence": "RRIRLRPPRLPRPRPRPDFKPRP", "shrunken log2 fold change": -0.06}, {"sequence": "RRIRDRPPRLPRPRPRPGRYPRP", "shrunken log2 fold change": -0.134}, {"sequence": "RRIRKRPPRLPRPRPRPDDAPRP", "shrunken log2 fold change": 1.47}, {"sequence": "RRIRDRPPRLPRPRPRPLMIPRP", "shrunken log2 fold change": 0.072}, {"sequence": "RRIRCRPPRLPRPRPRPCPWPRP", "shrunken log2 fold change": -0.0714}, {"sequence": "RRIRHRPPRLPRPRPRPCCIPRP", "shrunken log2 fold change": -0.0109}, {"sequence": "RRIRNRPPRLPRPRPRPFFDPRP", "shrunken log2 fold change": -0.0739}, {"sequence": "RRIRRRPPRLPRPRPRPRHGPRP", "shrunken log2 fold change": 0.197}, {"sequence": "RRIRDRPPRLPRPRPRPKFAPRP", "shrunken log2 fold change": -0.0673}, {"sequence": "RRIRTRPPRLPRPRPRPKAMPRP", "shrunken log2 fold change": 0.0836}, {"sequence": "RRIRQRPPRLPRPRPRPARWPRP", "shrunken log2 fold change": 0.781}, {"sequence": "RRIRQRPPRLPRPRPRPGPLPRP", "shrunken log2 fold change": -0.035}, {"sequence": "RRIRIRPPRLPRPRPRPYNHPRP", "shrunken log2 fold change": -0.138}, {"sequence": "RRIRERPPRLPRPRPRPVPGPRP", "shrunken log2 fold change": 0.186}, {"sequence": "RRIRPRPPRLPRPRPRPNYPPRP", "shrunken log2 fold change": -0.392}, {"sequence": "RRIRLRPPRLPRPRPRPYCMPRP", "shrunken log2 fold change": -1.34}, {"sequence": "RRIRNRPPRLPRPRPRPKMFPRP", "shrunken log2 fold change": -0.00426}, {"sequence": "RRIRGRPPRLPRPRPRPTSSPRP", "shrunken log2 fold change": 0.425}, {"sequence": "RRIRGRPPRLPRPRPRPRWPPRP", "shrunken log2 fold change": 0.973}, {"sequence": "RRIRKRPPRLPRPRPRPRKVPRP", "shrunken log2 fold change": 0.596}, {"sequence": "RRIRDRPPRLPRPRPRPHWRPRP", "shrunken log2 fold change": 0.0876}, {"sequence": "RRIRWRPPRLPRPRPRPMFHPRP", "shrunken log2 fold change": -0.271}, {"sequence": "RRIRIRPPRLPRPRPRPTTPPRP", "shrunken log2 fold change": 0.552}, {"sequence": "RRIRVRPPRLPRPRPRPGVPPRP", "shrunken log2 fold change": 0.0752}, {"sequence": "RRIRMRPPRLPRPRPRPWFRPRP", "shrunken log2 fold change": -0.305}, {"sequence": "RRIRSRPPRLPRPRPRPVVMPRP", "shrunken log2 fold change": 0.0334}, {"sequence": "RRIRRRPPRLPRPRPRPMQAPRP", "shrunken log2 fold change": 1.13}, {"sequence": "RRIRRRPPRLPRPRPRPTYQPRP", "shrunken log2 fold change": 0.112}, {"sequence": "RRIRKRPPRLPRPRPRPREIPRP", "shrunken log2 fold change": 0.736}, {"sequence": "RRIRVRPPRLPRPRPRPWQRPRP", "shrunken log2 fold change": 0.0171}, {"sequence": "RRIRTRPPRLPRPRPRPVHQPRP", "shrunken log2 fold change": -0.022}, {"sequence": "RRIRIRPPRLPRPRPRPIDFPRP", "shrunken log2 fold change": -0.0103}, {"sequence": "RRIRSRPPRLPRPRPRPMRMPRP", "shrunken log2 fold change": 0.323}, {"sequence": "RRIRIRPPRLPRPRPRPAQQPRP", "shrunken log2 fold change": -0.0315}, {"sequence": "RRIRTRPPRLPRPRPRPDGHPRP", "shrunken log2 fold change": -0.102}, {"sequence": "RRIRVRPPRLPRPRPRPVNQPRP", "shrunken log2 fold change": -0.0283}, {"sequence": "RRIRFRPPRLPRPRPRPGLSPRP", "shrunken log2 fold change": -0.0429}, {"sequence": "RRIRPRPPRLPRPRPRPHLPPRP", "shrunken log2 fold change": -0.126}, {"sequence": "RRIRSRPPRLPRPRPRPFQSPRP", "shrunken log2 fold change": -0.167}, {"sequence": "RRIRWRPPRLPRPRPRPPHHPRP", "shrunken log2 fold change": 0.214}, {"sequence": "RRIRFRPPRLPRPRPRPKMLPRP", "shrunken log2 fold change": -0.0622}, {"sequence": "RRIRDRPPRLPRPRPRPMRHPRP", "shrunken log2 fold change": 0.089}, {"sequence": "RRIRQRPPRLPRPRPRPVPSPRP", "shrunken log2 fold change": -0.0282}, {"sequence": "RRIRQRPPRLPRPRPRPGMWPRP", "shrunken log2 fold change": 0.191}, {"sequence": "RRIRYRPPRLPRPRPRPMWNPRP", "shrunken log2 fold change": -0.302}, {"sequence": "RRIRHRPPRLPRPRPRPSHAPRP", "shrunken log2 fold change": 0.0238}, {"sequence": "RRIRVRPPRLPRPRPRPLHDPRP", "shrunken log2 fold change": -0.41}, {"sequence": "RRIRFRPPRLPRPRPRPATAPRP", "shrunken log2 fold change": 0.106}, {"sequence": "RRIRHRPPRLPRPRPRPMGDPRP", "shrunken log2 fold change": -0.0774}, {"sequence": "RRIRHRPPRLPRPRPRPQWRPRP", "shrunken log2 fold change": 0.324}]}]}
